Data from article PMC6082628.

T1: Act1 SEFIR (mouse, UniProt Q8N7N6 391-537)
T1 sequence: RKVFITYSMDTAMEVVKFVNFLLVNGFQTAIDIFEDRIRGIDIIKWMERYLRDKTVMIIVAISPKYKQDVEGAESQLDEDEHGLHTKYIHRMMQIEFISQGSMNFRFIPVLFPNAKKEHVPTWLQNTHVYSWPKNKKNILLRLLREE


Experiments:
Act1 SEFIR [1] = target: T1, Act1 SEFIR; assay: EMSA
Act1 SEFIR [2] = target: T1, Act1 SEFIR; assay: EMSA; remark: listed apart in the source
Act1 SEFIR [3] = target: T1, Act1 SEFIR; assay: competition
Act1 SEFIR [4] = target: T1, Act1 SEFIR; assay: competition; remark: listed apart in the source

Binder | binding result (Act1 SEFIR [1]) | further results
Cxcl1 220-II (structured_RNA) RNA: GUUGGUAGGGCAUAAUGCCCUUUUACAUUCUUUAACCCUGUUUCUCCUGGUCUCGUCUCGCUCGGGACAGAGACGUUCAAAGGACUGUUACAAAUGAAGUAAAAAUAAAAG | binds | 
CCUUGGACAUUUUGUGUCUAGUUGGUAGGGCAUAAUGGGGUUUUACA (ssRNA) [Stem-loop C CCC to GGG] | no binding | 
CCUUGGACAUUUUGUGUCUAGUUGGUACCCCAUAAUGGGGUUUUACA (structured_RNA) [SBE stem swap] |  | binding result (Act1 SEFIR [2]): binds
CCUUGGACAUUUUGUGUCUAGUUGGUAAAACAUAAUGCCCUUUUACA (ssRNA) [SBE mutant C] | no binding | 
CCUUGGACAUUUUGUGUCUAGUUGGUAGGGCAUAAUGCCCUUUUACA (structured_RNA, 2'-O-methyl on the first three residues at 5' and 3' ends (as ordered)) [SBE WT aptamer (competitor)] |  | binding result (Act1 SEFIR [3]): binds
CCUUGGACAUUUUGUGUCUAGUUGGUAAAACAUAAUGCCCUUUUACA (ssRNA, 2'-O-methyl on the first three residues at 5' and 3' ends (as ordered)) [SBE mutant C aptamer (competitor)] |  | binding result (Act1 SEFIR [4]): no binding
